According to the supplement of paper PMC10126150:
± gives the standard deviation of the averaged measurements.

Tested on: ATP
Test: switch fluorescence ratio, 500 uM ATP over buffer (Cy3 cluster intensity, sum of 5 cycles each) (fold (ratio)); higher = stronger signal-on switching upon ATP binding; sequences stand for … in TCGTCGGCAGCGTCAGATGTGTATAAGAGACAGTTTTTTTTTTTTTTTTTTTTTTTTT…TC
Details: aptamer strand: ATP DNA aptamer (quencher-CACCTGGGGGAGTATTGCGGAGGAAGG + anchor), 100 nM annealed; ATP concentration: 500 uM
Procedure, shortened: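 Imaging in selection buffer was followed by imaging after 15 min with 500 uM ATP at 22 °C, for Cy3-labelled switching-strand clusters annealed to 100 nM quencher-labelled ATP aptamer on a modified Illumina MiSeq flow-cell. Five of these buffer/ATP cycles ran, separated by NaOH stripping and re-annealing. The fluorescence ratio per cluster is summed target-cycle over summed buffer-cycle Cy3 intensity, averaged per switch-domain sequence; clusters outside 100-1000 RFU were removed.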
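Also: ATP exposure 15 min at 22 °C before imaging.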

Sequence | switch fluorescence ratio
CCTAGTTAGT | 1.02 ± 0.034
CCTATATACG | 1.13 ± 0.042
CCTATGAATG | 0.987 ± 0.018
CCTATTACA | 1.03 ± 0.026
CCTATTGGGT | 1.02 ± 0.013
CCTATTTATT | 1.01 ± 0.02
CCTCAGCGGA | 3.35 ± 0.42
CCTCATCGAG | 1.07 ± 0.024
CCTCATTCGG | 1.06 ± 0.021
CCTCGATGTA | 1.08 ± 0.027
CCTCGGGAAA | 1.06 ± 0.1
CCTCGGTAGG | 1.02 ± 0.0051
CCTCTAAGTT | 1.27 ± 0.054
CCTCTGGCGC | 3.9 ± 0.3
CCTGAAATAT | 2.53 ± 1.7
CCTGAAGTTG | 1.18 ± 0.21
CCTGAGGAGA | 1.03 ± 0.015
CCTGATTTGA | 0.989 ± 0.02
CCTGCATTTG | 1.0933 ± 0.00019
CCTGCCGTTA | 1.27 ± 0.078
CCTGCTGTTC | 1.51 ± 0.09
CCTGCTTTTT | 1.02 ± 0.021
CCTGGACTCG | 1.02 ± 0.03

Sequence | switch fluorescence ratio
CCTGGAGAGT | 1.02 ± 0.059
CCTGGCCTGC | 1.078 ± 0.01
CCTGGCGATG | 1.38 ± 0.053
CCTGGGAAGA | 1.02 ± 0.017
CCTGGGCGGT | 1.32 ± 0.031
CCTGGGGGCC | 1 ± 0.013
CCTGGGGGG | 1.02 ± 0.045
CCTGGTACGT | 1.01 ± 0.034
CCTGGTCGGC | 1.02 ± 0.035
CCTGGTGGAC | 1.11 ± 0.058
CCTGTATTTT | 1.011 ± 0.0077
CCTGTTATGG | 1.01 ± 0.032
CCTGTTCCGA | 1.19 ± 0.028
CCTGTTTGTT | 0.967 ± 0.038
CCTTAAAAAA | 1.04 ± 0.014
CCTTAGGTAT | 1.011 ± 0.0094
CCTTAGTGAC | 1.36 ± 0.069
CCTTAGTTTT | 0.983 ± 0.022
CCTTATAGTT | 0.995 ± 0.023
CCTTATCCG | 1.07 ± 0.068
CCTTATGCCA | 1.09 ± 0.061
CCTTATTGAA | 0.979 ± 0.021
CCTTCCGTTC | 2.66 ± 0.53

Sequence | switch fluorescence ratio
CCTTCCTACG | 2.36 ± 0.54
CCTTCGTTGT | 2.85 ± 0.64
CCTTGAACGG | 0.9606 ± 0.005
CCTTGAATGG | 1.05 ± 0.005
CCTTGCCGGT | 1.022 ± 0.0094
CCTTGCGGGG | 1.06 ± 0.012
CCTTGCGTTC | 2.68 ± 0.19
CCTTGGGGAT | 1.11 ± 0.12
CCTTGGGGGA | 1.14 ± 0.055
CCTTGGGTTT | 1.08 ± 0.13
CCTTGGTATT | 0.998 ± 0.026
CCTTGTTTGG | 1.01 ± 0.011
CCTTTAATGT | 1.01 ± 0.022
CCTTTCGACA | 2.08 ± 0.26
CCTTTCGGGA | 1.73 ± 0.87
CCTTTCTATT | 0.99 ± 0.018
CCTTTGTATT | 1.04 ± 0.031
CCTTTGTTAT | 1.052 ± 0.0082
CCTTTGTTGG | 1.01 ± 0.013
CCTTTTCAGC | 1.12 ± 0.025
CCTTTTTATG | 1.024 ± 0.0028
CCTTTTTATT | 0.9882 ± 0.0064
CCTTTTTGAA | 0.986 ± 0.049

Sequence | switch fluorescence ratio
CGAAAAGGCT | 1.01 ± 0.016
CGAAAAGTTT | 0.994 ± 0.023
CGAAAATGGT | 1.04 ± 0.13
CGAAACAGCA | 1.012 ± 0.0064
CGAAAGATGG | 1 ± 0.034
CGAAAGATGT | 0.9857 ± 0.0025
CGAAAGGAA | 1.01 ± 0.011
CGAAATGCGG | 0.982 ± 0.036
CGAACCGTCA | 1.08 ± 0.028
CGAACCTGGA | 1.37 ± 0.076
CGAACGGATG | 1.0156 ± 0.00041
CGAACGGATT | 1.06 ± 0.054
CGAACGGTTG | 1.0261 ± 1.1e-05
CGAACGTCAG | 1.04 ± 0.012
CGAACTTGTG | 1.01 ± 0.015
CGAACTTTTG | 0.984 ± 0.018
CGAAGATCGG | 1 ± 0.023
CGAAGCGTCA | 1.081 ± 0.0014
CGAAGGATTG | 0.992 ± 0.015
CGAAGGGAAA | 1.12 ± 0.19
CGAAGGTAGG | 0.9843 ± 0.0049
CGAAGTGGCC | 1.02 ± 0.016
CGAATCGCCT | 1 ± 0.022

Sequence | switch fluorescence ratio
CGAATGGCGT | 1.029 ± 0.0063
CGAATTAGAA | 0.982 ± 0.042
CGAATTTTCG | 0.976 ± 0.012
CGACAAGCAG | 1.09 ± 0.026
CGACAATGTA | 1.17 ± 0.018
CGACATCGGA | 1.02 ± 0.017
CGACCGAACA | 1.09 ± 0.014
CGACCGGGGG | 1.11 ± 0.094
CGACGGAAGG | 1.25 ± 0.06
CGACGGTGAA | 1.09 ± 0.022
CGACGTGAGT | 1.036 ± 0.0042
CGACTCGACG | 1.013 ± 0.006
CGACTGATAT | 1.078 ± 0.0078
CGACTTTTAG | 0.959 ± 0.021
CGAGAATTGT | 0.9301 ± 0.0053
CGAGAGGAGG | 1.01 ± 0.02
CGAGAGGAGT | 0.997 ± 0.014
CGAGAGGGTG | 1.03 ± 0.02
CGAGATCAAG | 0.971 ± 0.013
CGAGATGGTT | 0.973 ± 0.025
CGAGCAGTAG | 3.57 ± 0.31
CGAGCAGTTA | 1.19 ± 0.074
CGAGCCCTTG | 1.027 ± 0.0065

Sequence | switch fluorescence ratio
CGAGCCTGGT | 1.02 ± 0.035
CGAGCCTTAA | 1.09 ± 0.035
CGAGCGGGTA | 0.989 ± 0.028
CGAGCTCTCG | 1.002 ± 0.0075
CGAGGATGTG | 0.964 ± 0.035
CGAGGGAATG | 1.1 ± 0.18
CGAGGGAGCA | 1.01 ± 0.025
CGAGGGATCA | 0.9947 ± 0.0011
CGAGGGCGGG | 0.999 ± 0.016
CGAGGGGGG | 0.997 ± 0.015
CGAGGGGGGT | 1.02 ± 0.027
CGAGGGGGTA | 1.02 ± 0.077
CGAGGGTAGG | 1.04 ± 0.025
CGAGGGTCGG | 1.01 ± 0.042
CGAGGGTGAG | 1.01 ± 0.042
CGAGGTAGTT | 0.975 ± 0.026
CGAGGTCAGT | 1.044 ± 0.01
CGAGGTGGCG | 0.958 ± 0.06
CGAGGTTTTC | 0.9817 ± 0.0056
CGAGTAGGAA | 0.984 ± 0.017
CGAGTAGGTT | 1.01 ± 0.011
CGAGTATGGA | 0.9923 ± 0.0042
CGAGTCAGA | 1.067 ± 0.0096

Sequence | switch fluorescence ratio
CGAGTCGACG | 0.99 ± 0.07
CGAGTCGCGA | 1.04 ± 0.062
CGAGTGAAAT | 1 ± 0.018
CGAGTGAATC | 1.01 ± 0.019
CGAGTGGAGG | 1.03 ± 0.011
CGAGTGGCGA | 1.077 ± 0.0022
CGAGTGGCGG | 0.968 ± 0.023
CGAGTGGGGA | 1.04 ± 0.041
CGAGTTAATT | 1.014 ± 0.0097
CGAGTTAGGG | 0.9906 ± 0.0021
CGAGTTTTGC | 1.03 ± 0.026
CGAGTTTTTT | 1 ± 0.021
CGATACACGT | 1.04 ± 0.029
CGATAGATGA | 0.993 ± 0.018
CGATATATTA | 0.9874 ± 0.0053
CGATATATTG | 0.988 ± 0.013
CGATATTGCC | 0.9909 ± 0.0097
CGATCAATAT | 2.38 ± 0.035
CGATCCGCGG | 0.942 ± 0.14
